Consider 1 molecule from PMC6353898 (Scientific Reports, 2019).

Ends that are not written are not given here. * marks the point of attachment. FITC = O=C1OC2(c3ccc(O)cc3Oc3cc(O)ccc32)c2ccc(NC(=S)*)cc21; Ahx = NCCCCCC(=O)O

This test addresses T1, EGFR on A431 and MDA MB 468 cells (human (endogenous in A431 and MDA MB …, UniProt P00533 25-1210)).
T1 construct: also called Epidermal growth factor receptor; EGFR overexpressing cells; source: endogenous, overexpressed on A431 and MDA MB 468 cells
Nature of the test: flow cytometry on cells; A431, MDA MB 468 and HEK 293 cells; FITC labeled peptides 10 µM in HBSS, 37 °C, 15 minutes; washed, trypsinized; mean fluorescence intensity. The settings on record: one partner purified. Background: In flow cytometry, cells or beads pass a laser one at a time.

B1: FITC conjugated Pep11 (designed binder)
peptide: {FITC-Ahx}-WSGENGPGFYDYEA
notes: Pep11, FITC labelled; also called FITC-Pep11; source: synthetic peptide (solid phase, Fmoc chemistry, HPLC purified)
Regarding B1, the “fold fluorescence against the other peptides” value came out at 1.5 fold.
